Measurements taken from IntAct's records for PubMed 17483306.

B1: ATPase 2, plasma membrane-type (Arabidopsis thaliana (Mouse-ear cress)), P19456 (parent)
chain: MSSLEDIKNETVDLEKIPIEEVFQQLKCSREGLTTQEGEDRIQIFGPNKLEEKKESKLLKFLGFMWNPLSWVMEMAAIMAIALANGDGRPPDWQDFVGIICLLVINSTISFIEENNAGNAAAALMAGLAPKTKVLRDGKWSEQEAAILVPGDIVSIKLGDIIPADARLLEGDPLKVDQSALTGESLPVTKHPGQEVFSGSTCKQGEIEAVVIATGVHTFFGKAAHLVDSTNQVGHFQKVLTAIGNFCICSIAIGMVIEIIVMYPIQRRKYRDGIDNLLVLLIGGIPIAMPTVLSVTMAIGSHRLSQQGAITKRMTAIEEMAGMDVLCSDKTGTLTLNKLSVDKNLVEVFCKGVEKDQVLLFAAMASRVENQDAIDAAMVGMLADPKEARAGIREVHFLPFNPVDKRTALTYIDGSGNWHRVSKGAPEQILELAKASNDLSKKVLSIIDKYAERGLRSLAVARQVVPEKTKESPGAPWEFVGLLPLFDPPRHDSAETIRRALNLGVNVKMITGDQLAIGKETGRRLGMGTNMYPSSALLGTHKDANLASIPVEELIEKADGFAGVFPEHKYEIVKKLQERKHIVGMTGDGVNDAPALKKADIGIAVADATDAARGASDIVLTEPGLSVIISAVLTSRAIFQRMKNYTIYAVSITIRIVFGFMLIALIWEFDFSAFMVLIIAILNDGTIMTISKDRVKPSPTPDSWKLKEIFATGVVLGGYQAIMTVIFFWAAHKTDFFSDTFGVRSIRDNNHELMGAVYLQVSIISQALIFVTRSRSWSFVERPGALLMIAFLIAQLIATLIAVYANWEFAKIRGIGWGWAGVIWLYSIVTYFPLDVFKFAIRYILSGKAWLNLFENKTAFTMKKDYGKEEREAQWALAQRTLHGLQPKEAVNIFPEKGSYRELSEIAEQAKRRAEIARLRELHTLKGHVESVVKLKGLDIETPSHYTV
partner: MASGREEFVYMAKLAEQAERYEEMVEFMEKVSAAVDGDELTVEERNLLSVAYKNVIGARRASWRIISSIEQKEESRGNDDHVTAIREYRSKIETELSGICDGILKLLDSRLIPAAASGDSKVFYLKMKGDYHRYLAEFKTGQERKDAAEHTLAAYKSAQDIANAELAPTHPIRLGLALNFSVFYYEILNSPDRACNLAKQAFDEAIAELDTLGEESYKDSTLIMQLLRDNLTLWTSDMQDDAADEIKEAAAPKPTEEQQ
B2: ATPase 2, plasma membrane-type (Arabidopsis thaliana (Mouse-ear cress)), P19456 (parent)
chain: B1 chain
partner: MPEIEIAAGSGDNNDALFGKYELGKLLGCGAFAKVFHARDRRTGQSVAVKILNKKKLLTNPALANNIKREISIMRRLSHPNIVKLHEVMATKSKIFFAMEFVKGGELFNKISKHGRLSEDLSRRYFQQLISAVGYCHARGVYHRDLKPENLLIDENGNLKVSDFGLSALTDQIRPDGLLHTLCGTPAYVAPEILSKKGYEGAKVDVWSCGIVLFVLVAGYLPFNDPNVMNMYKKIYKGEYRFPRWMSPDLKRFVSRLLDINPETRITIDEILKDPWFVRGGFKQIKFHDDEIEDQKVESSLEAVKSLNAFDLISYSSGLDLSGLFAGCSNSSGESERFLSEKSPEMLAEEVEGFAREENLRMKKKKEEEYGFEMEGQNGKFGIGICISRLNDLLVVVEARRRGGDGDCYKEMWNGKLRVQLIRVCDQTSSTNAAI

Variants of: B1
Details: with 14332_arath GRF2, Q01525

| effect of a mutation on the interaction | Variant |
| --- | --- |
| increasing interaction | S931A |
| disrupting interaction | S931D |
| decreasing interaction | R913A;S931D |

Variants of: B2
Details: with cipkb_arath CIPK11, O22932

| effect of a mutation on the interaction | Variant |
| --- | --- |
| disrupting interaction | S931A |
